Experiment [1] addresses T1, pT peptide (Rad 9-pT: SLEVpTEADATFYAKK) (Saccharomyces cerevisiae, UniProt P14737).
T1 construct: host or cells: chemical synthesis
Description: Isothermal titration calorimetry (ITC). The class given is binding, yeast. The settings on record: in solution by ITC; FHA1 domain 35 μM in cell; listed as WT FHA1 domain. As to the method:
A fixed amount (10 μL) of the pT peptide (Rad 9-pT: SLEVpTEADATFYAKK (SEQ ID NO:9); 500 μM) was injected from the syringe into the sample cell containing the FHA1 domain (35 μM). […] Each measurement was repeated three times.
The affinity of the G2 variant and the WT FHA1 domain to the pT peptide (SLEVpTEADATFYAKK) (SEQ ID NO:9) was determined by ITC (FIG. 12). The sample cell contained the purified FHA1 domains (35 μM) and the injection syringe was filled with the pT peptide (350 μM). […] The FHA1 domains bound to the pT peptide with a stoichiometry of 1:1, and the ITC graph was fitted by the single site binding model.
A general note: ITC needs no label: the signal is the heat of the interaction.

The target in a further experiment is T2, Rad9-pT peptide (Saccharomyces cerevisiae, UniProt P14737).
T2 construct: host or cells: chemical synthesis
Description: ELISA of GST fusions of FHA1 domains. Format: binding, yeast. The settings on record: expressed in bacterial cytoplasm as GST fusion; listed as WT FHA1 domain. As to the method: For production of FHA1-GST fusion protein, BL21 DE3 cells (10 mL; Stratagene) harboring the expression vector was grown overnight at 30° C. using the Overnight Express™ Autoinduction System 1 (Novagen). The next day, cells were lysed using BugBuster® 10× Protein Extraction Reagent (Novagen) following the manufacturer's instructions. Cell lysate (100 μL diluted 1:5 with PBST) was incubated with the biotinylated peptides as described above and detected using anti-GST antibody conjugated to HRP (diluted 1:10,000 with PBST; GE Healthcare).
In general terms: An ELISA detects its analyte on a solid surface through an enzyme-linked reagent.

Values joined by “and” are separate entries in the source; they are usually repeats but may differ in a detail not shown here. Identical values can stand only once. “Also recorded” adds a separate entry of the source.

B1: WT: N-terminal FHA1 domain of S. cerevisiae Rad53 protein kinase, residues 1-170 (SEQ ID NO:7) (protein, listed as Saccharomyces cerevisiae)
chain: MENITQPTQQSTQATQRFLIEKFSQEQIGENIVCRVICTTGQIPIRDLSADISQVLKEKRSIKKVWTFGRNPACDYHLGNISRLSNKHFQILLGEDGNLLLNDISTNGTWLNGQKVEKNSNQLLSQGDEITVGVGVESDILSLVIFINDKFKQCLEQNKVDRIRSNLKNT
Broadly, the Kd is the constant that tells how readily two partners part at equilibrium. With B1, the Kd in experiment [1] was ~1 µM and 1 µM. Also, the “binding of GST fusion to Rad9-pT peptide” value with Rad9-pT peptide is “bound specifically; also recorded: showed specific binding”.

The values are drawn from patent publication US9097721B2, “Compositions comprising engineered phosphothreonine affinity reagents, methods of making, and methods of use” (The Board of Trustees of the University of Illinois, priority 2012, dated 2015).
